Experiments:
Orai1β-eGFP [1] = target: Orai1β-eGFP (UniProt Q96D31); assay: FRET or BRET; confocal FRET in living WT HEK293 cells co-expressing Orai1 variant-eGFP and STIM-mCherry (CMV promoter); resting (control) cells, medium with 1.8 mM Ca2+; whole cell averages
Orai1β-eGFP [2] = target: Orai1β-eGFP (UniProt Q96D31); assay: FRET or BRET; confocal FRET in living WT HEK293 cells co-expressing Orai1 variant-eGFP and STIM-mCherry (CMV promoter); stimulated with 2 µM thapsigargin for 1 min, 1.8 mM extracellular Ca2+; whole cell averages

Chain of UniProt Q96D31 (Q96D31 whole entry): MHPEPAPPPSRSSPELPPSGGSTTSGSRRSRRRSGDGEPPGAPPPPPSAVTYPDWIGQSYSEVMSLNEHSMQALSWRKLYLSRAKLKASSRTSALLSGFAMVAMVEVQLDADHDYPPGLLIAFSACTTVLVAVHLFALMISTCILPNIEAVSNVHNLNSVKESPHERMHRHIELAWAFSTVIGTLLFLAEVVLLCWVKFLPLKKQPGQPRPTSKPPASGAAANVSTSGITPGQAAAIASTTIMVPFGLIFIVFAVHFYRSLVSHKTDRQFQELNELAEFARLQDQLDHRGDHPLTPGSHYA

mean nFRET (resting cells) (Orai1β-eGFP [1]): 0.074 | mean nFRET (2 µM TG, 1 min) (Orai1β-eGFP [2]): 0.114
Substance: STIM2-mCherry (from UniProt Q9P246 15-746) (natural protein)
